In patent US11994512B2, “Single-cell genomic methods to generate ex vivo cell systems that recapitulate in vivo biology with improved fidelity” (Massachusetts Institute of Technology, priority 2018, dated 2024):

Test system: intracellular proteome of ENR+CD and ENR organoids
Assay: LC-MS/MS TMT proteomics of ENR+CD versus ENR organoids
Type: cell-based, C57BL/6 mice
Settings: for Average logFC: ENR+CD versus ENR organoids, sample pairs in aggregate (n=4, 2 technical replicates from two biological donors); for M1-1 Log2 Median Normalized / M1-2 Log2 Median Normalized / M2-1 Log2 Median Normalized / M2-2 Log2 Median Normalized: protein abundance ratio ENR+CD versus ENR organoids, LC-MS/MS TMT proteomics; for M1-1 Log2 Median Normalized: sample pair M1-1; for M1-2 Log2 Median Normalized: sample pair M1-2; for M2-1 Log2 Median Normalized: sample pair M2-1; for M2-2 Log2 Median Normalized: sample pair M2-2; for change: up = enriched in ENR+CD, down = enriched in ENR, FDR<0.05 and log fold change cut-off

Molecule	Average logFC	M1-1 Log2 Median Normalized	M1-2 Log2 Median Normalized	M2-1 Log2 Median Normalized	M2-2 Log2 Median Normalized	change
Q61263 (protein, UniProt Q61263 1-540, looked up, full-length) MSLRNRLSKSGENPEQDEAQKNFMDTYRNGHITMKQLIAKKRLLAAEAEELKPLFMKEVGCHFDDFVTNLIEKSASLDNGGCALTTFSILEEMKKNHRAKDLRAPPEQGKIFISRQSLLDELFEVDHIRTIYHMFIALLILFVLSTIVVDYIDEGRLVLEFNLLAYAFGKFPTVIWTWWAMFLSTLSIPYFLFQRWAHGYSKSSHPLIYSLVHGLLFLVFQLGVLGFVPTYVVLAYTLPPASRFILILEQIRLIMKAHSFVRENIPRVLNAAKEKSSKDPLPTVNQYLYFLFAPTLIYRDNYPRTPTVRWGYVAMQFLQVFGCLFYVYYIFERLCAPLFRNIKQEPFSARVLVLCVFNSILPGVLILFLSFFAFLHCWLNAFAEMLRFGDRMFYKDWWNSTSYSNYYRTWNVVVHDWLYYYVYKDLLWFFSKRFKSAAMLAVFALSAVVHEYALAICLSYFYPVLFVLFMFFGMAFNFIVNDSRKRPIWNIMVWASLFLGYGLILCFYSQEWYARQHCPLKNPTFLDYVRPRTWTCRYVF	1.308	1.563	2.15	1.0245	0.494	up
Q60604 (protein, UniProt Q60604 1-715, looked up, full-length) MAQELQHPEFARAGQQAGLQVWRVEKLELVPVPQGAYGDFYVGDAYLVLHTTKSSRGFSYRLHFWLGKECSQDESTAAAIFTVQMDDYLGGKPVQSRELQGYESTDFVGYFKGGLKYKAGGVASGLNHVLTNDLTAKRLLHVKGRRVVRATEVPLSWESFNKGDCFIIDLGTEIYQWCGSSCNKYERLKASQVAIGIRDNERKGRSQLIVVEEGSEPSELMKVLGRKPELPDGDNDDDVVADISNRKMAKLYMVSDASGSMKVTLVAEENPFSMGMLLSEECFILDHGAAKQIFVWKGKNANPQERKTAMKTAEEFLQKMKYSTNTQIQVLPEGGETPIFKQFFKDWKDKDQSDGFGKVYITEKVAQIKQIPFDASKLHSSPQMAAQHNMVDDGSGGVEIWRVENSGRVQIDPSSYGEFYGGDCYIILYTYPRGQIIYTWQGANATRDELTMSAFLTVQLDRSLGGQAVQVRVSQGKEPAHLLSLFKDKPLIIYKNGTSKKEGQAPAPPTRLFQVRRNLASITRIVEVDVDANSLNSNDTFVLKLPRNNGFIWIGKGASQEEEKGAEYVADVLKCKASRIQEGKEPEEFWNSLGGRGDYQTSPLLETRAEDHPPRLYGCSNKTGRFIIEEVPGEFTQDDLAEDDVMLLDAWEQIFIWIGKDANEVEKKESVKSAKMYLETDPSGRDKRTPIVIIKQGHEPPTFTGWFLGWDSSRW	−1.3	−1.236	−2.062	−1.8295	−0.073	down
Q60673 (protein, UniProt Q60673 1-979, looked up, full-length) MRRPRRPGGSGGSGGSGGLRLLVCLLLLSGRPGGCSAISAHGCLFDRRLCSHLEVCIQDGLFGQCQAGVGQARPLLQVTSPVLQRLQGVLRQLMSQGLSWHDDLTQHVISQEMERIPRLRPPEPHPRDRSGLVPRKPGPAGELLTQGNPTGSSPAAQGFPRPAGGRSWGGSPLSSLQAELLPPLLEHLLMPPQPPHPALTYEPALLQPYLFHQFGSRDGSRGSESSSGVVGVGHLSKAEGPALFSRSASKAILGTHSGHSFGDLTGPSPAQLFQDSGLLYMAQELPVPGRARAPRLPENGGNRAEDSSEGHEEEVLGGRGEKSPPQAAQPELSLQRLTAVLAGYGVELRQLTPEQFSTLLTLLQLLPKGTGRNLEGAVNVGGADVKKTIQQMQRGDPAEALPPTPSLPGYLTASPASSEVQQVLSPGFPEPPHTPSPLGSSSVLLEKKSPLGQSQPTVVGRPSARPSAEEYGYIVTDQKPLSLVAGVRLLEILAEHVHMSSGSFINISVVGPAVTFRIRHNEQNLSLADVTQQAGLVKSELEAQTGLQILQTGVGQREEAAEVLPRQAHGISPMRSVLLTLVALAGVAGLLVALAVALCMRHHSRQRDKERLAALGPEGAHGDTTFEYQDLCRQHMATKSLFNRAEGQPEPSRVSSVSSQFSDAAQASPSSHSSTPSWCEEPAQANMDISTGHMILAYMEDHLRNRDRLAKEWQALCAYQAEPNTCAAAQDESNIKKNRHPDFLPYDHARIKLKVESSPSRSDYINASPIIEHDPRMPAYIATQGPLSHTIADFWQMVWESGCTVIVMLTPLVEDGVKQCDRYWPDEGSSLYHVYEVNLVSEHIWCEDFLVRSFYLKNLQTQETRTLTQFHFLSWPAEGTPASTRPLLDFRRKVNKCYRGRSCPIIVHCSDGAGRTGTYILIDMVLNRMAKGVKEIDIAATLEHVRDQRPGLVRSKDQFEFALTAVAEEVNAILKALPQ	1.189	1.189	1.249	0.8005	1.265	up
Q5HZI2 (protein, UniProt Q5HZI2 1-419, looked up, full-length) MRKTNMWFLERLRGSGENGASRGEAGDKSSKGPLYSNVLTPDKIPDFFIPPKLPSGPTEAEGQADLGPSTSEQNLASPGPRRAPRSPRLPAKLASESRSLLKAATRHVIQIESAEDWTAEEATNADPQAQGAMSLPSVPKAQTSYGFATLAESPHTRRKESLFHSEHGALAQVGSPGAGRRRAGAKGNGGDGGSREVGGALMSPSRYFSGGESDTGSSAESSPFGSPLLSRSVSLLKGFAQDSQAKVSQLKQSVGRHGSLSADDSTPDTSPGVRRRLSRRATPEPGPESGQAPRGEHTVKMGTRGSVRLLAEYEAAQARLRVRLLAAEGLYDRPCDARSINCCVGLCLVPGKLQKQRSTIIKNSRHPIFNEDFFFDGLGPASVRKLALRIKVVNKGSSLKRDTLLGEEELPLTSLLPFL	1.158	0.822	0.518	1.5305	1.762	up
Q5DQR4 (protein, UniProt Q5DQR4 1-1185, looked up, full-length) MKKFNFRKVLDGLTASSPGSGSSSGSNSGGAGSGSVHPGGTAGLPREEIQESLTSDYFQICKTVRHGFPYQPTALAFDPVQKILAIGTRTGAIRILGRPGVDCYCQHESGAAVLQLQFLINEGALVSASSDDTLHLWNLRQKRPAILHSLKFNRERITYCHLPFQSKWLYVGTERGNTHIVNIESFILSGYVIMWNKAIELSTKTHPGPVVHLSDSPRDEGKLLIGYENGTVVFWDLKSKRAELRVYYDEAIHSIDWHHEGKQFMCSHSDGSLTLWNLKSPSRPFQTTVPHGKSQREGRKSESCKPILKVEYKTCRNSEPFIIFSGGLSYDKACRRPSLTIMHGKAITVLEMDHPIVEFLTLCETPYPNEFQEPYAVAVLLEKDLIVVDLTQTNFPIFENPYPMDIHESPVTCTAYFADCPPDLILVLYSIGVKHKKQGYSNKEWPVSGGAWNLGAQTYPEIIITGHADGTIKFWDASAMTLQMLYKLKTSKVFEKQKAGEGKQTCELVEEDPFAVQMIYWCPESRIFCVSGVSAYVIIYKFSRHEVTTEIVSLEVRLQCDVEDIITPEPETSPPFPDLSSQLPPSRSLSGSTNTVSSEGVTKDSIPCLSVKTRPVRMPPGYQADLVIQLVWVDGEPPQQITSLSISSAYGIVAFGNCTGLVVVDFIQKTVLLSMGTIDLYRSSDLYQRQPRSPRKNRQFIADNFCMRGLSNFYPDLTKRIRTSYQSLTELNDSPVPLELERCKSPTSDHVNGHCTSPTSQSCSSGKRLSSADVSKVNRWGPGRPPFRKAQSAACMEISLPVTTEETRENSYNRSRSSSISSIDKDSKEAITALYFMESFARKNDSTVSPCLFVGTSLGMVVLISLNLPSSDEQRFTEPVVVLPSGTFLSLKGAVLTFSCMDRTGSLMQPPYEVWRDPNNTDENEKTWKRKLVMNYSSSSQEMGDHQYTIICSEKQAKVFSLPSQTCLYVHNITETSFILQADVVVMCNSACLACFCANGHIMIMSLPSLRPMLDVNYLPLTDMRIARTFCFTNEGQALYLVSPTEIQRLTYSQEMCDNIQDMLGDLFTPIETPEAQNRGFLKGLFGGSGQTFDREELFGEASAGKASRSLAQHIPGPGSIEGMKGAAGGVMGELTRARIALDERGQRLGELEEKTAGMMTSAEAFSKHAHELMLKYKDKKWYQF	1.147	1.316	0.966	1.1715	1.133	up
Q62395 (protein, UniProt Q62395 1-81, looked up, full-length) METRALWLMLLVVLVAGSSGIAADYVGLSPSQCMVPANVRVDCGYPSVTSEQCNNRGCCFDSSIPNVPWCFKPLQETECTF	1.185	1.037	1.294	0.4235	1.984	up
Q61391 (protein, UniProt Q61391 1-750, looked up, full-length) MGRSESQMDITDINAPKPKKKQRWTPLEISLSVLVLLLTIIAVTMIALYATYDDGICKSSDCIKSAARLIQNMDASVEPCTDFFKYACGGWLKRNVIPETSSRYSNFDILRDELEVILKDVLQEPKTEDIVAVQKAKTLYRSCINESAIDSRGGQPLLKLLPDIYGWPVASDNWDQTYGTSWTAEKSIAQLNSKYGKKVLINFFVGTDDKNSTQHIIHFDQPRLGLPSRDYYECTGIYKEACTAYVDFMISVARLIRQEQSLPIDENQLSLEMNKVMELEKEIANATTKPEDRNDPMLLYNKMTLAKLQNNFSLEVNGKSFSWSNFTNEIMSTVNINIQNEEEVVVYAPEYLTKLKPILTKYSPRDLQNLMSWRFIMDLVSSLSRNYKESRNAFRKALYGTTSETATWRRCANYVNGNMENAVGRLYVEAAFAGESKHVVEDLIAQIREVFIQTLDDLTWMDAETKKKAEEKALAIKERIGYPDDIISNENKLNNEYLELNYREDEYFENIIQNLKFSQSKQLKKLREKVDKDEWISGAAVVNAFYSSGRNQIVFPAGILQPPFFSAQQSNSLNYGGIGMVIGHEITHGFDDNGRNFNKDGDLVDWWTQQSANNFKDQSQCMVYQYGNFSWDLAGGQHLNGINTLGENIADNGGIGQAYRAYQNYVKKNGEEKLLPGLDLNHKQLFFLNFAQVWCGTYRPEYAVNSIKTDVHSPGNFRIIGTLQNSAEFADAFHCRKNSYMNPERKCRVW	−1.133	−0.83	−1.694	1.3345	−0.675	down
